Conditions: Escherichia coli (strain K12); pH 7.8; 25 °C; Urea; CD; potassium phosphate 10 mM; transition: 3; whole UniProt chain shown

B1: Tryptophan synthase alpha chain wild type, P0A877 (protein)
chain: MERYESLFAQLKERKEGAFVPFVTLGDPGIEQSLKIIDTLIEAGADALELGIPFSDPLADGPTIQNATLRAFAAGVTPAQCFEMLALIRQKHPTIPIGLLMYANLVFNKGIDEFYAQCEKVGVDSVLVADVPVEESAPFRQAALRHNVAPIFICPPNADDDLLRQIASYGRGYTYLLSRAGVTGAENRAALPLNHLVAKLKEYNAAPPLQGFGISAPDQVKAAIDAGAAGAISGSAIVKIIEQHINEPEKMLAALKVFVQPMKAATRS
With B1 as the protein, how does the denaturant m value read?
Its denaturant m value is 2.29 kcal/mol/M.

And the “denaturant midpoint (higher = more stable)” value?
The value was 2.68 M.

And the unfolding free energy?
Its unfolding free energy is 6.13 kcal/mol.
